Experimental data: the supplement of paper PMC12042874
± gives the uncertainty stated by the source.

assay: amyloid nucleation score (Sup35N fusion, yeast selection) (log enrichment); library NNK2; higher = more nucleation; inactive = no reads after selection
Procedure, shortened: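 In psi-negative yeast, Sup35N fusions carrying peptides of 20 random codons were induced with 100 μM copper sulfate for 24 hours. The cells then grew 7 days at 30°C on medium lacking adenine and uracil, and plasmid inserts from input and output were Illumina-sequenced, excluding sequences with under 100 input reads. Nucleation score is the DiMSum log enrichment of output over input reads, centred on the mode score of non-aggregating sequences.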

Question: With LYAVRSALYFCTVYFGSSNR as the substance, how does the amyloid nucleation score read?
Answer: 3.18 ± 0.13

Question: For YAQWYDCTSSAEKRYKKVLS, which amyloid nucleation score is on record?
Answer: -0.473 ± 0.31

Question: For LSVTPIFGRNTDTLESGL, which amyloid nucleation score is on record?
Answer: -0.093 ± 0.55

Question: For TIGHCTEWAINMSYVFNRGY, which amyloid nucleation score is on record?
Answer: 3.74 ± 0.053

Question: Which amyloid nucleation score does the source give for NWGWFVSLFYGVAAGDHSRT here?
Answer: 0.955 ± 0.37

Question: Which amyloid nucleation score does the source give for LSRAN here?
Answer: inactive

Question: For YTEGAWVRVSDYRE, which amyloid nucleation score is on record?
Answer: -0.565 ± 0.29

Question: Which amyloid nucleation score does the source give for YQRRRSGGLELDWSNTMQGC here?
Answer: -0.015 ± 0.31

Question: For YYRYPYTLKCPGGLQERQHL, which amyloid nucleation score is on record?
Answer: -0.028 ± 0.76

Question: For YSSSVMPRRSDRVRT, which amyloid nucleation score is on record?
Answer: 0.139 ± 0.63

Question: With NLSFKSMYLVERWICHRKGR as the substance, how does the amyloid nucleation score read?
Answer: 1.14 ± 0.18

Question: For PYTSS, which amyloid nucleation score is on record?
Answer: -0.107 ± 0.41

Question: With SKGRYAYRRMGAYLCSD as the substance, how does the amyloid nucleation score read?
Answer: 1.48 ± 0.43

Question: Which amyloid nucleation score does the source give for SWQDSLYRAQCFLCSWSKTV here?
Answer: -0.575 ± 0.34

Question: For RFYTVSRSRLSGMSMYLCRV, which amyloid nucleation score is on record?
Answer: -0.294 ± 0.26

Question: Which amyloid nucleation score does the source give for KSICARVFTIQMRNVSVQSS here?
Answer: 0.158 ± 0.43

Question: Which amyloid nucleation score does the source give for NSVCYGP here?
Answer: 0.899 ± 0.47

Question: Which amyloid nucleation score does the source give for YEVSIIFCRLFSILIRPGTS here?
Answer: -1.1 ± 1.1

Question: For TYPMMGQGFC, which amyloid nucleation score is on record?
Answer: 0.131 ± 0.55

Question: Which amyloid nucleation score does the source give for VYVWDELFVNKKANWTDL here?
Answer: 1.29 ± 0.47

Question: Which amyloid nucleation score does the source give for ASLLGQKSAVGILRIHSKLY here?
Answer: -0.573 ± 1.1

Question: With YMRDFYRVRNYRRCCVVCPS as the substance, how does the amyloid nucleation score read?
Answer: -1.59 ± 1.1

Question: For MLFNLYISTSTLVDRS, which amyloid nucleation score is on record?
Answer: 1.23 ± 0.17

Question: For LLKTSASCIMHGEKQKWMLA, which amyloid nucleation score is on record?
Answer: 0.671 ± 0.64

Question: For GVVPQGMMTI, which amyloid nucleation score is on record?
Answer: -0.701 ± 0.55

Question: Which amyloid nucleation score does the source give for WGFIVDFILSGRRPAGYQLL here?
Answer: 0.309 ± 0.8

Question: For NRACFGYEDKLRAMLHLYRS, which amyloid nucleation score is on record?
Answer: 0.201 ± 0.45

Question: For RLTRALLCFTNKALDQCCST, which amyloid nucleation score is on record?
Answer: inactive

Question: For YLFVQEKKRVFRYFRWRHPV, which amyloid nucleation score is on record?
Answer: -0.032 ± 0.8

Question: For TDNHFVTRCTYVAFQLTYKV, which amyloid nucleation score is on record?
Answer: -0.375 ± 1.1

Question: For FHGGNFATDWFLWFINWEVA, which amyloid nucleation score is on record?
Answer: -0.259 ± 0.65

Question: For NPVMTA, which amyloid nucleation score is on record?
Answer: -0.314 ± 0.37

Question: Which amyloid nucleation score does the source give for MLYSWKFPEVASGNLKCRLE here?
Answer: -0.24 ± 0.32

Question: For GTIFMRALKNAVYASSRALI, which amyloid nucleation score is on record?
Answer: -0.247 ± 0.54

Question: With MTTYAVLGVPI as the substance, how does the amyloid nucleation score read?
Answer: -0.421 ± 0.28

Question: Which amyloid nucleation score does the source give for FLNHE here?
Answer: inactive

Question: Which amyloid nucleation score does the source give for TISIFGM here?
Answer: -0.325 ± 0.33

Question: For LCGHSNTAVWARHPEYSLVS, which amyloid nucleation score is on record?
Answer: inactive

Question: Which amyloid nucleation score does the source give for FGICLVMRFLWYESSTPWED here?
Answer: -0.446 ± 1

Question: With LCNSEIFNMANISMS as the substance, how does the amyloid nucleation score read?
Answer: 0.498 ± 0.19

Question: For FYYNCGWSCNNVTWFSRQFV, which amyloid nucleation score is on record?
Answer: 3.04 ± 0.12

Question: For LIMLASSLWTRKGGDTST, which amyloid nucleation score is on record?
Answer: 6.292 ± 0.053

Question: Which amyloid nucleation score does the source give for TCSSPTMKSYMNHCLHVDSF here?
Answer: 0.516 ± 0.47

Question: With HNGVIVIDCWRRKFHPNVIS as the substance, how does the amyloid nucleation score read?
Answer: -0.922 ± 1

Question: Which amyloid nucleation score does the source give for PWNMACFS here?
Answer: inactive

Question: With RARPC as the substance, how does the amyloid nucleation score read?
Answer: inactive

Question: For FFSSTMNCVSLKRVKL, which amyloid nucleation score is on record?
Answer: -0.432 ± 1.1

Question: For DHRIWKAAREVVLVCHL, which amyloid nucleation score is on record?
Answer: 0.629 ± 0.4

Question: For TYPNKADPLFRS, which amyloid nucleation score is on record?
Answer: 0.008 ± 0.46

Question: With LASHVVWTDKN as the substance, how does the amyloid nucleation score read?
Answer: 6.635 ± 0.041

Question: Which amyloid nucleation score does the source give for PKMRFFPIARSSIRERNVWV here?
Answer: -1.31 ± 0.34

Question: Which amyloid nucleation score does the source give for MWISFFCRRYSNIWTGFGYM here?
Answer: -1.09 ± 1

Question: Which amyloid nucleation score does the source give for GSVYKCLGSWVIYRFIFSWV here?
Answer: 1.19 ± 0.66

Question: Which amyloid nucleation score does the source give for FNDSPSYWFSHYIAARSSVE here?
Answer: -0.37 ± 0.36

Question: For VWVSSIDMGLFVANLCETAS, which amyloid nucleation score is on record?
Answer: -0.074 ± 1.1

Question: For FTWVYMHNIIFLLGSRLYIK, which amyloid nucleation score is on record?
Answer: inactive

Question: Which amyloid nucleation score does the source give for RCNIWCHFPVCRAINIMLQA here?
Answer: -0.147 ± 1.1

Question: For MLSIVNCNGSRVGYWTDS, which amyloid nucleation score is on record?
Answer: 5.85 ± 0.08

Question: With TVNLVFSTRG as the substance, how does the amyloid nucleation score read?
Answer: 4.64 ± 0.059

Question: Which amyloid nucleation score does the source give for NCQRVWYCWVALSLCETCID here?
Answer: 5.168 ± 0.047

Question: With GFSIVNQDWYS as the substance, how does the amyloid nucleation score read?
Answer: 0.675 ± 0.35

Question: Which amyloid nucleation score does the source give for SLNSGFRDPIYWSVLRRSPS here?
Answer: 6.81 ± 0.086

Question: For CLCCYTIM, which amyloid nucleation score is on record?
Answer: 7.381 ± 0.044

Question: For DKSNGVTMVESITSGG, which amyloid nucleation score is on record?
Answer: -0.303 ± 0.56
